Assay [1] has as its target Ang2 (produced from CHO cell) (UniProt O15123). Put plainly: ELISA titration, Ang2 coated, anti-human Fc-HRP. On the technique in general: An ELISA detects its analyte on a solid surface through an enzyme-linked reagent.
Assay [2] concerns the target VEGF-A165 (produced from CHO cell) (UniProt P15692). Description: ELISA titration (0-3 nM), VEGF-A coated, anti-human Fc-HRP.
Sequence of UniProt P15692 (P15692 other isoform, or with tags, fused parts or gaps limits assumed): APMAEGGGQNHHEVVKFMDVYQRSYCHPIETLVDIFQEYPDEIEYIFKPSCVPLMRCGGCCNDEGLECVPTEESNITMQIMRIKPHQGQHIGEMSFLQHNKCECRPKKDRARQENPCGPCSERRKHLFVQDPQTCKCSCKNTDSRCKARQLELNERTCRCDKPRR

Sequence of UniProt O15123 (O15123 19-496 limits assumed): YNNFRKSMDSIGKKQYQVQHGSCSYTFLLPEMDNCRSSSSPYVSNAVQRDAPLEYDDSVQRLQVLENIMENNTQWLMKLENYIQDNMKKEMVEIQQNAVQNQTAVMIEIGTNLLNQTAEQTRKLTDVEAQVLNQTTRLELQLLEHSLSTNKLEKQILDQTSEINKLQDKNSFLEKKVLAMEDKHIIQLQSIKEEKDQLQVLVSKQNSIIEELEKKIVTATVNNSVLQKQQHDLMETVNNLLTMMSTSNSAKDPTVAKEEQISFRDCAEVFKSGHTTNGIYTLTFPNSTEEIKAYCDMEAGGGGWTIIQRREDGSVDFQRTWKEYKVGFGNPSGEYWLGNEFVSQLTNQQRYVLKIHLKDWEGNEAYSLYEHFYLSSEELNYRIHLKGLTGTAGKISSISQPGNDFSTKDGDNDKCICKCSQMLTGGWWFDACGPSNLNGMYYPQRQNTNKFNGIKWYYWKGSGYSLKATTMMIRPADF

The term Kd denotes a measure of binding affinity in units of concentration. As to Tie2-Fc (Fc fusion), in assay [1], the Kd came to 50 nM. VEGF-trap (Fc fusion) showed a Kd in assay [2] of 0.001 nM.

The record behind these values is patent US20080242587A1.
